Values quoted from earlier work, collected in PMC3486867.

Molecular target: Asp408 (UniProt position 408, GLLVDDAIVVV)
Experiment: chemical modification (inferred from the title of ref 54: site-directed mutagenesis and carbodiimide labeling)

Substance: Multidrug transporter AcrB (not stated (Escherichia coli inferred))
- pKa: 7.4
